Assay results published in patent publication US20190241648A1 (STATEN BIOTECHNOLOGY B V, published 2019).
Ends that are not written are not given here.

Tests used:
Test in all cases: cyclic peptide substitution array
ApoC3 peptide D66C = biological target: T1, ApoC3 peptide D66C (human, not fully specified; cyclic (thioether))
T1 peptide: DKFSEFWCLDPEV
Outline: (§1)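 Peptide microarrays incubated with antibody samples, then stained with goat anti-human IgG (Fc) DyLight680 and anti-HA DyLight800 control antibodies, scanned at intensity 7/7 (red/green). Secondary-only pre-stain checked background binding; framing HA peptides served as quality control; substitution effects read as changes in spot intensity.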

ApoC3 peptide P69C = biological target: T2, ApoC3 peptide P69C (human, thioether (positions not given here); not fully specified (bridges); also: thioether from modified N-terminus to C-terminal Cys (Cys not in chain))
T2 peptide: DKFSEFWDLDCEV
Outline: as §1

ApoC3 peptide E63G = biological target: T3, ApoC3 peptide E63G (human, not fully specified; cyclic (thioether))
T3 peptide: DKFSGFWDLDPEV
Outline: as §1

ApoC3 peptide L67G = biological target: T4, ApoC3 peptide L67G (human, thioether (positions not given here); not fully specified (bridges); also: thioether between a C-terminal Cys side chain and a modified N-terminus, the Cys is not in the chain)
T4 peptide: DKFSEFWDGDPEV
Outline: as §1

ApoC3 peptide L67H = biological target: T5, ApoC3 peptide L67H (human, thioether (positions not given here); not fully specified (bridges); also: thioether between a C-terminal Cys side chain and a modified N-terminus, the Cys is not in the chain)
T5 peptide: DKFSEFWDHDPEV
Outline: as §1

ApoC3 peptide E63K = biological target: T6, ApoC3 peptide E63K (human, cyclic (thioether))
T6 peptide: DKFSKFWDLDPEV
Outline: as §1

ApoC3 peptide L67K = biological target: T7, ApoC3 peptide L67K (human, thioether (positions not given here); not fully specified (bridges); also: thioether between a C-terminal Cys side chain and a modified N-terminus, the Cys is not in the chain)
T7 peptide: DKFSEFWDKDPEV
Outline: as §1

ApoC3 peptide D66M = biological target: T8, ApoC3 peptide D66M (human, not fully specified; cyclic (thioether))
T8 peptide: DKFSEFWMLDPEV
Outline: as §1

ApoC3 peptide S62N = biological target: T9, ApoC3 peptide S62N (human, thioether (positions not given here); also: cyclic (thioether), ring places not given here)
T9 peptide: DKFNEFWDLDPEV
Outline: as §1

ApoC3 peptide F64N = biological target: T10, ApoC3 peptide F64N (human, thioether (positions not given here); not fully specified (bridges); also: cyclic (thioether), positions not given here)
T10 peptide: DKFSENWDLDPEV
Outline: as §1

ApoC3 peptide D66N = biological target: T11, ApoC3 peptide D66N (human, not fully specified; cyclic (thioether))
T11 peptide: DKFSEFWNLDPEV
Outline: as §1

ApoC3 peptide K60P = biological target: T12, ApoC3 peptide K60P (human, cyclic (thioether))
T12 peptide: DPFSEFWDLDPEV
Outline: as §1

ApoC3 peptide W65P = biological target: T13, ApoC3 peptide W65P (human, cyclic (thioether))
T13 peptide: DKFSEFPDLDPEV
Outline: as §1

ApoC3 peptide D68P = biological target: T14, ApoC3 peptide D68P (human, cyclic (thioether))
T14 peptide: DKFSEFWDLPPEV
Outline: as §1

ApoC3 peptide E70P = biological target: T15, ApoC3 peptide E70P (human, cyclic (thioether))
T15 peptide: DKFSEFWDLDPPV
Outline: as §1

ApoC3 peptide D66Q = biological target: T16, ApoC3 peptide D66Q (human, not fully specified; cyclic (thioether))
T16 peptide: DKFSEFWQLDPEV
Outline: as §1

ApoC3 peptide F61R = biological target: T17, ApoC3 peptide F61R (human, cyclic (thioether))
T17 peptide: DKRSEFWDLDPEV
Outline: as §1

ApoC3 peptide E70R = biological target: T18, ApoC3 peptide E70R (human, cyclic (thioether))
T18 peptide: DKFSEFWDLDPRV
Outline: as §1

ApoC3 peptide F64S = biological target: T19, ApoC3 peptide F64S (human, thioether (positions not given here); not fully specified (bridges); also: cyclic (thioether), positions not given here)
T19 peptide: DKFSESWDLDPEV
Outline: as §1

ApoC3 peptide W65T = biological target: T20, ApoC3 peptide W65T (human, cyclic (thioether))
T20 peptide: DKFSEFTDLDPEV
Outline: as §1

ApoC3 peptide D68T = biological target: T21, ApoC3 peptide D68T (human, cyclic (thioether))
T21 peptide: DKFSEFWDLTPEV
Outline: as §1

ApoC3 peptide F64V = biological target: T22, ApoC3 peptide F64V (human, thioether (positions not given here); not fully specified (bridges); also: cyclic (thioether), positions not given here)
T22 peptide: DKFSEVWDLDPEV
Outline: as §1

ApoC3 peptide L67V = biological target: T23, ApoC3 peptide L67V (human, thioether (positions not given here); not fully specified (bridges); also: thioether between a C-terminal Cys side chain and a modified N-terminus, the Cys is not in the chain)
T23 peptide: DKFSEFWDVDPEV
Outline: as §1

ApoC3 peptide E70V = biological target: T24, ApoC3 peptide E70V (human, cyclic (thioether))
T24 peptide: DKFSEFWDLDPVV
Outline: as §1

ApoC3 peptide K60W = biological target: T25, ApoC3 peptide K60W (human, cyclic (thioether))
T25 peptide: DWFSEFWDLDPEV
Outline: as §1

ApoC3 peptide D59Y = biological target: T26, ApoC3 peptide D59Y (human, not fully specified; cyclic (thioether))
T26 peptide: YKFSEFWDLDPEV
Outline: as §1

ApoC3 peptide K60Y = biological target: T27, ApoC3 peptide K60Y (human, cyclic (thioether))
T27 peptide: DYFSEFWDLDPEV
Outline: as §1

ApoC3 peptide D68Y = biological target: T28, ApoC3 peptide D68Y (human, cyclic (thioether))
T28 peptide: DKFSEFWDLYPEV
Outline: as §1

ApoC3 peptide E70Y = biological target: T29, ApoC3 peptide E70Y (human, cyclic (thioether))
T29 peptide: DKFSEFWDLDPYV
Outline: as §1

ApoC3 peptide E70A = biological target: T30, ApoC3 peptide E70A (human, cyclic (thioether))
T30 peptide: DKFSEFWDLDPAV
Outline: as §1

B1: Llama antibody 5E5 (antibody, V domains shown)
VH: QLQLVESGGGLVQPGGSLRLSCAASGFTFGTYSMRWVRQVPRKALEWVSSISTDGGGTAYRDSVKGRFTISRDNAKNTLYLQMNNLKPEDTAIYYCVIAGYSDWGQGTQVTVSS
VL: ATMLTQSPGSLSVVPGESASISCKTSQGLVHSDGKTYFYWFLQKPGQSPQQLIYQVSNRASGVPDRFTGSGSGTDFTLKISGVKAEDAGVYYCAQGTYYPHTFGSGTRLEIK
notes: detected with goat anti-human IgG (Fc); also called mAb 5E5
B1 was tested, and the “% of binding to wild-type peptide” value (ApoC3 peptide D66C) was 10.3%, the “% of binding to wild-type peptide” value (ApoC3 peptide P69C) was 3.72% and the “% of binding to wild-type peptide” value (ApoC3 peptide E63G) was 0%. The “% of binding to wild-type peptide” value (ApoC3 peptide L67G) was 35.2%, the “% of binding to wild-type peptide” value (ApoC3 peptide L67H) was 3.58% and the “% of binding to wild-type peptide” value (ApoC3 peptide E63K) was 19.1%. The “% of binding to wild-type peptide” value (ApoC3 peptide L67K) was 45.6%, the “% of binding to wild-type peptide” value (ApoC3 peptide D66M) was 0% and the “% of binding to wild-type peptide” value (ApoC3 peptide S62N) was 0%. The “% of binding to wild-type peptide” value (ApoC3 peptide F64N) was 234%, the “% of binding to wild-type peptide” value (ApoC3 peptide D66N) was 0% and the “% of binding to wild-type peptide” value (ApoC3 peptide K60P) was 205%. The “% of binding to wild-type peptide” value (ApoC3 peptide W65P) was 0%, the “% of binding to wild-type peptide” value (ApoC3 peptide D68P) was 28.6% and the “% of binding to wild-type peptide” value (ApoC3 peptide E70P) was 55.2%. For the same binder, the “% of binding to wild-type peptide” value (ApoC3 peptide D66Q) was 0%, the “% of binding to wild-type peptide” value (ApoC3 peptide F61R) was 2.77% and the “% of binding to wild-type peptide” value (ApoC3 peptide E70R) was 35.8%. For the same binder, the “% of binding to wild-type peptide” value (ApoC3 peptide F64S) was 367%, the “% of binding to wild-type peptide” value (ApoC3 peptide W65T) was 0% and the “% of binding to wild-type peptide” value (ApoC3 peptide D68T) was 0.65%. For the same binder, the “% of binding to wild-type peptide” value (ApoC3 peptide F64V) was 117%, the “% of binding to wild-type peptide” value (ApoC3 peptide L67V) was 84.8% and the “% of binding to wild-type peptide” value (ApoC3 peptide E70V) was 57%. For the same binder, the “% of binding to wild-type peptide” value (ApoC3 peptide K60W) was 41.9%, the “% of binding to wild-type peptide” value (ApoC3 peptide D59Y) was 50.3% and the “% of binding to wild-type peptide” value (ApoC3 peptide K60Y) was 56.3%. The “% of binding to wild-type peptide” value (ApoC3 peptide D68Y) was 0.16%, the “% of binding to wild-type peptide” value (ApoC3 peptide E70Y) was 50.7% and the “% of binding to wild-type peptide” value (ApoC3 peptide E70A) was 50%.
